{"source": "the DeepSol protein solubility set"}
{"test": "soluble on expression in E. coli; label from the status in PepcDB or PDB records"}
{"sequence": "KEAMRMLMREELEKVLKTLSPREAMVLRMRYGLLDGKPKTLEEVGQYFNVTRERIRQIEVKALRKLRHPSRSKYLKSLLSLMDENEG", "soluble on expression in E. coli": "soluble"}
{"sequence": "MQHLEAVRNILGDVLNLGERKHTLTASSVLLGNIPELDSMAVVNVITALEEYFDFSVDDDEISAQTFETLGSLALFVEHKLSH", "soluble on expression in E. coli": "soluble"}
{"sequence": "MLAAGMSRRMGFNKLLAPLCGKRVLWHVLELVARFEGVLEGAVVVTSGEVADVLRRERPPGRRGLFRVVVNREQWRGLSHSIRLGVEASPGARAYLFFNGDRPFVSKHTVARVLALYMARRPLIAAPMAGGAIAPPVVVDSRLRGELLRLSGDTGVRSLFGKYRDSLAVVEVDDPGLHLDVDTPEDLERASKMCSQLGGGPREKPLEHHHHHH", "soluble on expression in E. coli": "not soluble"}
{"sequence": "MGHHHHHHSHMPASLALLQPRAMMKTLSSGNCTLSVPAKNSYRMVVLGASRVGKSSIVSRFLNGRFEDQYTPTIEDFHRKVYNIRGDMYQLDILDTSGNHPFPAMRRLSILTGDVFILVFSLDNRESFDEVKRLQKQILEVKSCLKNKTKEAAELPMVICGNKNDHGELCRQVPTTEAELLVSGDENCAYFEVSAKKNTNVDEMFYVLFSMAKLPHEMSPALHRKISVQYGDAFHPRPFCMRRVKEMDAYGMVSPFARRPSVNSDLKYIKAKVLREGQARERDKCTIQ", "soluble on expression in E. coli": "not soluble"}
{"sequence": "MRKLMTATAALCACAVTVSAGAAWADADVQPAGSVPIPDGPAQTWIVADLDSGQVLAGRDQNVAHPPASTIKVLLALVALDELDLNSTVVADVADTQAECNCVGVKPGRSYTARQLLDGLLLVSGNDAANTLAHMLGGQDVTVAKMNAKAATLGATSTHATTPSGLDGPGGSGASTAHDLVVIFRAAMANPVFAQITAEPSAMFPSDNGEQLIVNQDELLQRYPGAIGGKTGYTNAARKTFVGAAARGGRRLVIAMMYGLVKEGGPTYWDQAATLFDWGFALNPQASVGSL", "soluble on expression in E. coli": "soluble"}
{"sequence": "MVKGRIHSVESCGTVDGPGIRYVIFTQGCLLRCQYCHNADTWEIGKGKEITVEEVMQDVTCYLPFIEASGGGITVSGGEPLLQLDFLIELFKKCKAAGIHTTIDSSGGCYSEEPEFRNKLDILMDYTDLVLLDLKHIDSKKHRKLTGKPNEHILQFARYLSDKNKPIWVRHVLVPGVTDNEEDLQKLSSFIQSLSNVQKVEVLPYHKLGVYKWEALGHKYPLANVEPPTEKNVEHAKYILQAV", "soluble on expression in E. coli": "not soluble"}
{"sequence": "MSLFSDVAETSSFVFAVAGADDEVVLETIRLALKQKLGKFLLFGKKEDKTLTANESVTWIQTDTAEAAAQGAILAVKNKEADILVKGFIPTATLMHHVLKKENGLRTDQLLSQIAIFDIPTYHKPLLITDCAMNVAPKTKEKIAITENALAVAHQIGITNPKIALLSAVEEVTAKMPSTLEAQEVVQHFGNQISVSGPLALDVAISKEAALHKGITDSSAGEADILIAPNIETGNALYKSLVYFAGAKVGSAVVGAKVPIVISSRNDSPENKLASFILTVRLVEKEGHHHHHH", "soluble on expression in E. coli": "soluble"}
{"sequence": "MGHHHHHHMSEFYKLAPVDKKGQPFPFDQLKGKVVLIVNVASKCGFTPQYKELEALYKRYKDEGFTIIGFPCNQFGHQEPGSDEEIAQFCQLNYGVTFPIMKKIDVNGGNEDPVYKFLKSQKSGMLGLRGIKWNFEKFLVDKKGKVYERYSSLTKPSSLSETIEELLKEVE", "soluble on expression in E. coli": "soluble"}
{"sequence": "MSLQLLLVDDEEDANEELAELLEGEGFCCFTASSVKMALHQLTAHPDIALVITDLRMPEESGIQLIRHLREHTSRQHLPVIVTSGHADMDDVSDLLRLHVLDLFRKPIYHVRLLETLNNLFPEPKIFQEGHHHHHH", "soluble on expression in E. coli": "soluble"}
{"sequence": "GPLGSMSAAIAKPSAKPSAHVDPKSAPLKEIPDVLVDPRTMKRYMRGRFLGKGGFAKCYEITDMDTKEVFAGKVVPKSMLLKPHQKEKMSTEIAIHKSLDNPHVVGFHGFFEDDDFVYVVLEICRRRSLLELHKRRKAVTEPEARYFMRQTIQGVQYLHNNRVIHRDLKLGNLFLNDDMDVKIGDFGLATKIEFDGERKKTLCGTPNYIAPEVLCKKGHSFEVDIWSLGCILYTLLVGKPPFETSCLKETYIRIKKNEYSVPRHINPVASALIRRMLHADPTLRPSVAELLTDEFFTSGYAPMRLPTSCLTVPPRFS", "soluble on expression in E. coli": "soluble"}
{"sequence": "MSLEATIRLGSSLPLTGHARYLGVETLRGALAYINHVNDSGGVHGRRIELDARDDGYDPPRCLANTQEQLISGEVFALTCYVGTPTTMRILPLVDEARIPLVGAFTGANGLRDPFSRYVFNVRASYYQETDAAVRHLVHDLGLTRIAVFYQYDAYGFDGLTGTELALRELGLAPVARGSYARGTDNIEDGLHRIIASDAEAVLMVGTSEPTARFIRMAEEAGFDAVYHALSFTGAEELARLLGHTDAKVLLSQVVPPPDAPEAPAILGCTTEYVNLLKRYYPDATPSAIGLEGYINARILVEGLRRAGPDLTREGFVRALESLRDYPLGGRTVVSFSPESRQGMGSVYFTRLVGGRFELMREAGAPPSAARPASNKGEGHHHHHH", "soluble on expression in E. coli": "soluble"}
{"sequence": "MKNIVSAFGIIPRNNRLMYIHSYQSYVWNTMVSRRIEEYGLRPVPGDLVLKGATPTYIEEDDVDNYSIHDVVMPLPGFDVIYPKHKISEAYREMLAADNLDIDNMRHTIRDYSLSGAYRRIIIRPQSVSWEVVAYDDPKIPLFNTDVDNLEGKPPPVFASEGKYRALKMDFSLPPSTYATMAIREVLKMDTSIKNQTQLNTSWLR", "soluble on expression in E. coli": "not soluble"}
{"sequence": "MIIEHNGNIHKIARMTGNKNNFLEIILSDIHENIKIKPLTIKVKGENVINILPEEVSFYVKQGVDLIYEKYKRKFFISEISFCQSDSRPSSIYAFLTFHLLEDIIKNESPSNYT", "soluble on expression in E. coli": "not soluble"}
{"sequence": "MPDPQISAIICTHNRDTYLGAAIDSLLVQDFAGEFEVVVIDNGSSDRTREVVEQRSSDSRLKYVFEPTIGLSVARNTGAKFASAEILAYLDDDAVASTHWLQVLYAAYQNYPQLAIAGGKVTLLWPPDTQPPRWLSSGLAGNLGAYDLGDKVVYIQQPGLTPRGLNYSIRRTFLEEIGGFDPHLGRVGKNLLSNEELQMTELALTGGWQVAYLPEALVAHNVAPERLNRSWFLNRGWWQGISECYREQLSGKAGVGQLSRGGERLARGLYKAFRYFSNPAERFDNLVYAYGQIGYLNAVLQGLLFTANNKGSQLEHHHHHH", "soluble on expression in E. coli": "soluble"}
{"sequence": "MNYYGTSMWASDNNTASNSDSSLNLLGILLLASENNKLINNTVLTNLYGVNLMAESTGIGDKTGPSENILASNIISYNLGTGILFDESYGNLIYNNSFDNIWNVEDESLNTWNSSEIGNYWSDYEGEDADGDGVGDTPYLINSHTGSMDYLPVTRSSDFPELEHHHHHH", "soluble on expression in E. coli": "not soluble"}
{"sequence": "MNNVIIIGGGIAGLCAAISLQKIGLDVKVYDKNTEPTVAGAGIIIAPNAMQALELYGISKKIKKFGNESDGFNLVSKKGTTFNKLIIPTCYPKMYSIHRKDLHQLLLSELKEDTVKWGKECVKIEQNEENALKIVFQDGSEALGNILIAADGIHSIVRKQVTQGDNYRYAGYTCWRGVTPTKNLSLTNDFIETWGTNGRFGIVPLPNNEVYWYALINAKARDPKYKAYTTTDLYNHFKTYHNPIPSILQNASDIDMIHRDIIDITPMKQFFDKRIVFIGDAAHALTPNLGQGACQAIEDAIILAECIKNNAYYRQAFTEFEQKRRDRIEKISNTAWKVGKIAQIESKPLTIVRNKVMKRIPKWISERQAHELYRFHL", "soluble on expression in E. coli": "not soluble"}
{"sequence": "MGSDKIHHHHHHMLDLNHGSGCQYQKPDRDPGITVAVNAAIDAALVVRNRSQVARQYVSTSGIGRECLRQIQYDYLAVPKDEGRDFEPKTLRIFEAGHRGEDVVAAWLRAAGFDLRTERRDGRQFGFSALNGRFKGHIDGCLVGGPVAMAYPALWENKALGVSSWKDVVKRGVVLSKPVYAAQLALYQAYMDLPAPTLFTALNRDTWEIHCELVPFDAALAQTMSDRAVQVVRASDAQELLPRASAERTSVICRGGKTAGGWHGACSWQDRCWGRCR", "soluble on expression in E. coli": "not soluble"}
{"sequence": "MSLRYIVVGASAAGISGAKTLRELDKDAEIILVSKDENVYSRCILHHYISGHRDIEALDFTDRDFFEKYNIEWKKGLEVKAIDDREHVIVLSNGESLKYDKILLATGASAFIPPVENLREAKNVVGLRNLEDAIKIKEEAEKVKNVVVLGAGLVGIDAIAGLAFKDLNVTLVEMGDRVLPIQLDKYASSKYEKRFEDAGVKLKLGVRAEKVLIDENKNPKALLINTGEEIPCELIIVATGVRSNVAFLKDSSIETDRFGLIINEKGETNARDVYGAGDITGRNPIWPTAVKEGIIAANNMVGNEIFMEDFFGSKNTMNFLGLTTMSLGVVNAPDDSYTEEIDISGENYKKIIHKDGKIYGAIIQGDLSYAGVLTQLIKEKIHVSKVKKPLFEIDYADFFNIKENLEYTYEGHHHHHH", "soluble on expression in E. coli": "soluble"}
{"sequence": "SRMVLRGLLSEHPKKQMIPVIIYGAGRSGRQLLEAVKQMREYSAAAFVDDDPKLWHTVIYDLAVYQPDAIAFLIERYGVEKILLAIPGATQEQRRRIINKLEAYPCEVLTIPGMKDLMDGKISIGTLKKISVSDLLGRDSVAPDDRLMSADIEGKTVMVTGAGGSIGSELCRQIIRRRPEKLLLFELSEFALYAIEKELRETCIQKRLDTEILPFLGSVQNRTLLE", "soluble on expression in E. coli": "not soluble"}
{"sequence": "MKLHTLVSCLHDFPVVPKENPEITSIEADSRKVKEGSLFVCMKGYTVDSHDFAKQAAAQGAAAIVAERPIDVDVPVVLVKNTFRSLAVLADYFYGQPTHKLHLIGITGTNGKTTTSHIMDEIMRAHGHKTGLIGTINMKIGDETFEVKNTTPDALTLQQTFAKMVEHGVDSTVMEVSSHALDLGRVHGCDYDVAVFTNLTQDHLDYHKTMEEYKHAKGLLFAQLGNSYNHNREKYAVLNNDDAVTVEYMRSTAATVVTYGIDTTSDVMAKDIAMTSGGTTFTLVTPYESVNVTMKLIGKFNVYNVLAATAAGLVSGVSLETIIDVIKELAGVPGRFEVVDGGQNYTVIVDYAHTPDSLENVLKTAKQFAKGDVYCIVGCGGDRDRTKRPIMASVATQYATHAIYTSDNPRSEDPAAILDDMVHGANGNNYEVIIDRKEAIHHAITKAKADDIIIIAGKGHETYQIIGKDVHHFDDREVAKEAITERLNNEE", "soluble on expression in E. coli": "not soluble"}
{"sequence": "MGHVVKVALLGLGEVGEKFAEHFLEKIQEDRANVEIVAVAHRDLESPVALGFVHSKVPVFKDAMEVVTLGAKVDIIFDLTGDPEVRRKLRIALQESHNQHTVIAPEVVAHLLWNFFGEGELPRSNRTGY", "soluble on expression in E. coli": "soluble"}
{"sequence": "AEVYNKDGNKLDLYGKVDGLHYFSDDKSVDGDQTYMRLGFKGETQVTDQLTGYGQWEYQIQGNAPESENNSWTRVAFAGLKFQDIGSFDYGRNYGVVYDVTSWTDVLPEFGGDTYGSDNFMQQRGNGFATYRNTDFFGLVDGLNFAVQYQGQNGSVSGENDPDFTGHGITNNGRKALRQNGDGVGGSITYDYEGFGVGAAVSSSKRTWDQNNTGLIGTGDRAETYTGGLKYDANNIYLAAQYTQTYNATRVGSLGWANKAQNFEAVAQYQFDFGLRPSVAYLQSKGKNLGVVAGRNYDDEDILKYVDVGATYYFNKNMSTYVDYKINLLDDNQFTRAAGINTDDIVALGLVYQF", "soluble on expression in E. coli": "soluble"}
{"sequence": "DGTVLPGPVPVTVAVRAPGDENDEDASGEASTPNAVRPRTSCRRDRFVAGIVRGTFHPDLYMCSQDCITFKGKRIGRSKFEKLGNSSMAKWHRSIRVIREDGELEPLGEWLTRHGLPVLKGKQRISRKRTIRI", "soluble on expression in E. coli": "not soluble"}
{"sequence": "MAVSLPTKYPLRPITNIPKSHRPSLLRVRVTCSVTTTKPQPNREKLLVEQRTVNLPLSNDQSLQSTKPRPNREKLVVEQRLASPPLSNDPTLKSTWTHRLWVAAGCTTLFVSLAKSVIGGFDSHLCLEPALAGYAGYILADLGSGVYHWAIDNYGDESTPVVGTQIEAFQGHHKWPWTITRRQFANNLHALAQVITFTVLPLDLAFNDPVFHGFVCTFAFCILFSQQFHAWAHGTKSKLPPLVVALQDMGLLVSRRQHAEHHRAPYNNNYCIVSGAWNNVLDESKVFEALEMVFYFQLGVRPRSWSEPNSDWIEETEISNNQA", "soluble on expression in E. coli": "soluble"}
